Test results from patent US20100129369A1 (Eli Lilly, published 2010).

B1: C8-co-16 (antibody, human IgG2, kappa, V domains shown)
VH: QVQLVQSGAEVKKPGASVKVSCKASGYTFTDYYMHWVRQAPGQGLEWMGRVNPYRGSTTYNQKFEGRVTMTTDTSTSTAYMELRSLRSDDTAVYYCARANILDYWGQGTTVTVSS
VL: DIQMTQSPSSLSASVGDRVTITCSVSSSVRSIYLHWYQQKPGKAPKLLIYSTSNLASGVPSRFSGSGSGTDFTLTISSLQPEDFATYYCQVYRGYPLTFGGGTKVEIKR
B2: D11-8B8 (antibody, human IgG2, kappa, V domains shown)
VH: QVQLVQSGAEVKKPGSSVKVSCKASGYTFTSRYIHWVRQAPGQGLEWMGWIYPVTGDTYYIEKFKGRVTITADKSTSTAYMELSSLRSEDTAVYYCARGYGAFFYWGQGTLVTVSS
VL: EIVLTQSPGTLSLSPGERATLSCSVSSSISSTNLHWYQQKPGQAPRLLIYGTSYLASGIPDRFSGSGSGTDFTLTISRLEPEDFAVYYCQQWSSYPYSFGQGTKLEIKR

Columns and labels:
Assay in all cases: cell-based or functional assay
[1] = biological target: T1, human c-Met (human, UniProt P08581 25-1390)
T1 sequence (P08581 25-1390): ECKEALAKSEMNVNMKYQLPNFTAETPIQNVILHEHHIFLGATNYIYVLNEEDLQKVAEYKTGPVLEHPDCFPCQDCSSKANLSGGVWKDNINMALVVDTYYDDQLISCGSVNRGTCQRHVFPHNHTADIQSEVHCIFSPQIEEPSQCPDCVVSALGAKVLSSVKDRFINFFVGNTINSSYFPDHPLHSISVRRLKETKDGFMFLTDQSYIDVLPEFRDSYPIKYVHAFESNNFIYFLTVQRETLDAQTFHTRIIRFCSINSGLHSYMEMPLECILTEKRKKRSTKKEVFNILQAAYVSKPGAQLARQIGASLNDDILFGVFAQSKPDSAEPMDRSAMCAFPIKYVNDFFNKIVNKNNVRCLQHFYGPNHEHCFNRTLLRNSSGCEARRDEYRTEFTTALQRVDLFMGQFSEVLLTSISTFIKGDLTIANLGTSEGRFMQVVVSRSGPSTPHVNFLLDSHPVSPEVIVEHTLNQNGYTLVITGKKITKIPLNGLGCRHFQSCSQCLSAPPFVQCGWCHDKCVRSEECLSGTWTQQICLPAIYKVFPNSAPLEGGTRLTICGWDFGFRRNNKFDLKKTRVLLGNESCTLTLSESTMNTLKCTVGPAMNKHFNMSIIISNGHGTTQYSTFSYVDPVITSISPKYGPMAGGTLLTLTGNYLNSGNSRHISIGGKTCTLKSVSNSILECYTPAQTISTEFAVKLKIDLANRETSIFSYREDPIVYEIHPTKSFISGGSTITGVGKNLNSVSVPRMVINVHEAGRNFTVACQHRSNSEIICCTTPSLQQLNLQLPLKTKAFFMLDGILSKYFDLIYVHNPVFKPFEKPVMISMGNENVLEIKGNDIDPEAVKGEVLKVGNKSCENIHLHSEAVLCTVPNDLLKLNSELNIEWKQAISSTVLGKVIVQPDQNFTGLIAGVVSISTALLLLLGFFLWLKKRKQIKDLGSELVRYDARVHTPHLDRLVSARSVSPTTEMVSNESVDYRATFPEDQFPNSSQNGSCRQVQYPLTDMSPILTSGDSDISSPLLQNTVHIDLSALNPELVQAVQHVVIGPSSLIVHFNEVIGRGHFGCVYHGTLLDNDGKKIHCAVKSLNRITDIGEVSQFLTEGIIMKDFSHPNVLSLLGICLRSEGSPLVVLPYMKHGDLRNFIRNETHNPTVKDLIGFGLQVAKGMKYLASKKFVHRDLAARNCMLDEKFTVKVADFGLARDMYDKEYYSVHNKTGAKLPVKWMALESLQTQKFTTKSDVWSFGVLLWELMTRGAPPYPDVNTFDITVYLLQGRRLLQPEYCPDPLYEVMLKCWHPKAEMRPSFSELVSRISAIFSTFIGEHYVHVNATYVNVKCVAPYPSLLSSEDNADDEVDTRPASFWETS

[2] = biological target: T1, human c-Met; remark: listed apart in the source
[3] = biological target: T1, human c-Met; remark: listed apart in the source
[4] = biological target: T1, human c-Met; remark: listed apart in the source

Binder	3H-Thymidine Incorporation in Caki-1 Cells in the Absence of HGF (AVG CPM), antibody dose 0.1 ng/mL [1]	3H-Thymidine Incorporation in Caki-1 Cells in the Absence of HGF (AVG CPM), antibody dose 0.4 ng/mL [1]	3H-Thymidine Incorporation in Caki-1 Cells in the Absence of HGF (AVG CPM), antibody dose 2.6 ng/mL [1]	3H-Thymidine Incorporation in Caki-1 Cells in the Absence of HGF (AVG CPM), antibody dose 15.4 ng/mL [1]	3H-Thymidine Incorporation in Caki-1 Cells in the Absence of HGF (AVG CPM), antibody dose 92.6 ng/mL [1]	3H-Thymidine Incorporation in Caki-1 Cells in the Absence of HGF (AVG CPM), antibody dose 555.6 ng/mL [1]	3H-Thymidine Incorporation in Caki-1 Cells in the Absence of HGF (AVG CPM), antibody dose 3333.3 ng/mL [1]	3H-Thymidine Incorporation in Caki-1 Cells in the Absence of HGF (AVG CPM), antibody dose 20000.0 ng/mL [1]	3H-Thymidine Incorporation in Primary Human Hepatocytes in the Absence of HGF (average), dose 0.0032 ug/mL [2]	3H-Thymidine Incorporation in Primary Human Hepatocytes in the Absence of HGF (average), dose 0.016 ug/mL [2]	3H-Thymidine Incorporation in Primary Human Hepatocytes in the Absence of HGF (average), dose 0.08 ug/mL [2]	3H-Thymidine Incorporation in Primary Human Hepatocytes in the Absence of HGF (average), dose 0.4 ug/mL [2]	3H-Thymidine Incorporation in Primary Human Hepatocytes in the Absence of HGF (average), dose 2 ug/mL [2]	3H-Thymidine Incorporation in Primary Human Hepatocytes in the Absence of HGF (average), dose 10 ug/mL [2]	Percent of DU145 Cells in Colonies (scatter assay), antibody 20 ug/mL [3]	Staurosporine-Induced Apoptosis in Caki-1 Cells, Average A450 nm, antibody dose 3 ng/mL [4]	Staurosporine-Induced Apoptosis in Caki-1 Cells, Average A450 nm, antibody dose 30 ng/mL [4]	Staurosporine-Induced Apoptosis in Caki-1 Cells, Average A450 nm, antibody dose 300 ng/mL [4]	Staurosporine-Induced Apoptosis in Caki-1 Cells, Average A450 nm, antibody dose 3000 ng/mL [4]	Staurosporine-Induced Apoptosis in Caki-1 Cells, Average A450 nm, antibody dose 30000 ng/mL [4]
B1	15600 CPM	14100 CPM	13700 CPM	12100 CPM	11600 CPM	11400 CPM	13800 CPM	13100 CPM	829	716	767	670	822	952	23.7%					
B2	15300 CPM	14400 CPM	14100 CPM	13500 CPM	13700 CPM	14000 CPM	15700 CPM	15900 CPM	611	715	1120	1230	1430	1700	25.6%	1.02 A450 nm	0.91 A450 nm	0.81 A450 nm	0.91 A450 nm	0.87 A450 nm
